Molecular target: the molecule itself
Experiment: SEC

B1: PdeA(R69A) (enzyme, Caulobacter crescentus, UniProt Q9A310 1-555, looked up)
chain: MSFRTGERRIWDATATLEALGAADVALWIWEPETDRLRLNGAARALGLGPLAPECSSAAFRALALPQDAAQAEEVLKPREPGSEVVARFRVRGGETCLWRGVWLEEGVRAAGVVAPETKFSASELCDLTGLLDRRSFLARARERLAQEGTHQLVVADLDRLRRLNEALGHERADLVLAALGSRLAAAFPAQSILGRIGEDEFAVLCQPLGYEPSDVLRSALEQPLRVAGFDIHPTLSIGAVSAEGGLDAPDAAELLRRAELAVEAAAAAGRGGAAAYGRAMETDGLSRLALEADLRGAIGRGEITPYFQPIVRLSTGALSGFEALARWIHPRRGMLPPDEFLPLIEEMGLMSELGAHMMHAAAQQLSTWRAAHPAMGNLTVSVNLSTGEIDRPGLVADVAETLRVNRLPRGALKLEVTESDIMRDPERAAVILKTLRDAGAGLALDDFGTGFSSLSYLTRLPFDTLKIDRYFVRTMGNNAGSAKIVRSVVKLGQDLDLEVVAEGVENAEMAHALQSLGCDYGQGFGYAPALSPQEAEVYLNEAYVDGAAPVKARG
For B1, the “stoichiometry N” value was 2.
